In article doi:10.1101/2020.08.28.272104 one finds Kd and stoichiometry N data, which are given here for one substance.

For this assay, the target named is triple-helical collagen peptide Ac-(GPO)2-GPO-GPQ-GLA-GQR-GIV-GLO-GQR-GER-(GPO)3G-NH2. Description: ITC. (Isothermal titration calorimetry measures the heat released or taken up as one component is titrated into another.)

Take “MMP-1(E200A), active-site mutant of matrix metalloproteinase 1 (enzyme)”: the Kd (as a rule, the equilibrium constant for the complex coming apart) is 250 to 500 nM and the stoichiometry N (usually a count of units in the complex or per binding partner) stood at 1.
